Test results from PMC10540216, “Activity Guided Azide-methyllysine Photo-trapping for Substrate Profiling of Lysine Demethylases” (Journal of the American Chemical Society, 2023).

B1: AMOT_HUMAN (protein, UniProt Q4VCS5 1-1084, looked up)
Angiomotin: MRNSEEQPSGGTTVLQRLLQEQLRYGNPSENRSLLAIHQQATGNGPPFPSGSGNPGPQSDVLSPQDHHQQLVAHAARQEPQGQEIQSENLIMEKQLSPRMQNNEELPTYEEAKVQSQYFRGQQHASVGAAFYVTGVTNQKMRTEGRPSVQRLNPGKMHQDEGLRDLKQGHVRSLSERLMQMSLATSGVKAHPPVTSAPLSPPQPNDLYKNPTSSSEFYKAQGPLPNQHSLKGMEHRGPPPEYPFKGMPPQSVVCKPQEPGHFYSEHRLNQPGRTEGQLMRYQHPPEYGAARPAQDISLPLSARNSQPHSPTSSLTSGGSLPLLQSPPSTRLSPARHPLVPNQGDHSAHLPRPQQHFLPNQAHQGDHYRLSQPGLSQQQQQQQQQHHHHHHHQQQQQQQPQQQPGEAYSAMPRAQPSSASYQPVPADPFAIVSRAQQMVEILSDENRNLRQELEGCYEKVARLQKVETEIQRVSEAYENLVKSSSKREALEKAMRNKLEGEIRRMHDFNRDLRERLETANKQLAEKEYEGSEDTRKTISQLFAKNKESQREKEKLEAELATARSTNEDQRRHIEIRDQALSNAQAKVVKLEEELKKKQVYVDKVEKMQQALVQLQAACEKREQLEHRLRTRLERELESLRIQQRQGNCQPTNVSEYNAAALMELLREKEERILALEADMTKWEQKYLEENVMRHFALDAAATVAAQRDTTVISHSPNTSYDTALEARIQKEEEEILMANKRCLDMEGRIKTLHAQIIEKDAMIKVLQQRSRKEPSKTEQLSCMRPAKSLMSISNAGSGLLSHSSTLTGSPIMEEKRDDKSWKGSLGILLGGDYRAEYVPSTPSPVPPSTPLLSAHSKTGSRDCSTQTERGTESNKTAAVAPISVPAPVAAAATAAAITATAATITTTMVAAAPVAVAAAAAPAAAAAPSPATAAATAAAVSPAAAGQIPAAASVASAAAVAPSAAAAAAVQVAPAAPAPVPAPALVPVPAPAAAQASAPAQTQAPTSAPAVAPTPAPTPTPAVAQAEVPASPATGPGPHRLSIPSLTCNPDKTDGPVFHSNTLERKTPIQILGQEPDAEMVEYLI
B2: RBM33_HUMAN (protein, UniProt Q96EV2 2-1170, looked up)
RNA-binding protein 33: AAALGASGGAGAGDDDFDQFDKPGAERSWRRRAADEDWDSELEDDLLGEDLLSGKKNQSDLSDEELNDDLLQSDNEDEENFSSQGVTISLNATSGMVTSFELSDNTNDQSGEQESEYEQEQGEDELVYHKSDGSELYTQEYPEEGQYEGHEAELTEDQIEYVEEPEEEQLYTDEVLDIEINEPLDEFTGGMETLELQKDIKEESDEEEEDDEESGRLRFKTERKEGTIIRLSDVTRERRNIPETLELSAEAKAALLEFEERERQHKQGRYSSRRGGRRGGPLMCRGVGDQRRESTERGRMKDHRPALLPTQPPVVPQAPPPPPPPPQQQPIRSLFQPQPLQPLLPVQHPHHPSPPQGMHMPPQLETPRMMMTPPPVTPQQPKNIHINPHFKGTVVTPVQVPLLPVPSQPRPAVGPQRFPGPPEFPQHTPGPVPNSFSQPPRLPLQDQWRAPPPPQDRDPFFLGVSGEPRFPSHLFLEQRSPPPPPPPPTLLNSSHPVPTQSPLPFTQPGPAFNQQGQQPVFPRERPVRPALQPPGPVGILHFSQPGSATTRPFIPPRQPFLPGPGQPFLPTHTQPNLQGPLHPPLPPPHQPQPQQPQQQPPPQHQPPHQPPHQPPPQHQPPPQHPPQHPPQHQHHHHHHHLSVPPPPLMPMSQPQFRPHVQTAQPQASSSRMQCPQRQGLRHNTTSQNVSKRPMQQMQPTAPRNSNLRELPIAPSHVIEMSSSRCSATPSAQVKPIVSASPPSRAVAGSRSSQGKTEVKVKPASPVAQPKEEAKTETEFPDEDEETRLYRLKIEEQKRLREEILKQKELRRQQQAGARKKELLERLAQQQQQLYAPPPPAEQEEQALSPSPTNGNPLLPFPGAQVRQNVKNRLLVKNQDVSISNVQPKTSNFVPSSANMQYQGQQMKALKHLRQTRTVPQSQTQPLHKVLPIKPADVEEPAVPQTPRVASIQGRPQDTKPGVKRTVTHRTNSGGGDGPHISSKVRVIKLSGGGGESDGFFHPEGQPQRLPQPPEVGPQPARKVTLTRGGLQQPPHLPAGPHAHSPVPPGIKSIQGIHPAKKAIMHGRGRGVAGPMGRGRLMPNKQNLRVVECKPQPCVVSVEGLSSSTTDAQLKSLLMSVGPIQSLQMLPQQRKAIAKFKEPAHALAFQQKFHRHMIDLSHINVALIVE
B3: SMC3_HUMAN (protein, UniProt Q9UQE7 1-1217, looked up)
Structural maintenance of …: MYIKQVIIQGFRSYRDQTIVDPFSSKHNVIVGRNGSGKSNFFYAIQFVLSDEFSHLRPEQRLALLHEGTGPRVISAFVEIIFDNSDNRLPIDKEEVSLRRVIGAKKDQYFLDKKMVTKNDVMNLLESAGFSRSNPYYIVKQGKINQMATAPDSQRLKLLREVAGTRVYDERKEESISLMKETEGKREKINELLKYIEERLHTLEEEKEELAQYQKWDKMRRALEYTIYNQELNETRAKLDELSAKRETSGEKSRQLRDAQQDARDKMEDIERQVRELKTKISAMKEEKEQLSAERQEQIKQRTKLELKAKDLQDELAGNSEQRKRLLKERQKLLEKIEEKQKELAETEPKFNSVKEKEERGIARLAQATQERTDLYAKQGRGSQFTSKEERDKWIKKELKSLDQAINDKKRQIAAIHKDLEDTEANKEKNLEQYNKLDQDLNEVKARVEELDRKYYEVKNKKDELQSERNYLWREENAEQQALAAKREDLEKKQQLLRAATGKAILNGIDSINKVLDHFRRKGINQHVQNGYHGIVMNNFECEPAFYTCVEVTAGNRLFYHIVDSDEVSTKILMEFNKMNLPGEVTFLPLNKLDVRDTAYPETNDAIPMISKLRYNPRFDKAFKHVFGKTLICRSMEVSTQLARAFTMDCITLEGDQVSHRGALTGGYYDTRKSRLELQKDVRKAEEELGELEAKLNENLRRNIERINNEIDQLMNQMQQIETQQRKFKASRDSILSEMKMLKEKRQQSEKTFMPKQRSLQSLEASLHAMESTRESLKAELGTDLLSQLSLEDQKRVDALNDEIRQLQQENRQLLNERIKLEGIITRVETYLNENLRKRLDQVEQELNELRETEGGTVLTATTSELEAINKRVKDTMARSEDLDNSIDKTEAGIKELQKSMERWKNMEKEHMDAINHDTKELEKMTNRQGMLLKKKEECMKKIRELGSLPQEAFEKYQTLSLKQLFRKLEQCNTELKKYSHVNKKALDQFVNFSEQKEKLIKRQEELDRGYKSIMELMNVLELRKYEAIQLTFKQVSKNFSEVFQKLVPGGKATLVMKKGDVEGSQSQDEGEGSGESERGSGSQSSVPSVDQFTGVGIRVSFTGKQGEMREMQQLSGGQKSLVALALIFAIQKCDPAPFYLFDEIDQALDAQHRKAVSDMIMELAVHAQFITTTFRPELLESADKFYGVKFRNKVSHIDVITAEMAKDFVEDDTTHG
B4: SF3B2_HUMAN (protein, UniProt Q13435 1-895, looked up)
Splicing factor 3B subunit 2: MATEHPEPPKAELQLPPPPPPGHYGAWAAQELQAKLAEIGAPIQGNREELVERLQSYTRQTGIVLNRPVLRGEDGDKAAPPPMSAQLPGIPMPPPPLGLPPLQPPPPPPPPPPGLGLGFPMAHPPNLGPPPPLRVGEPVALSEEERLKLAQQQAALLMQQEERAKQQGDHSLKEHELLEQQKRAAVLLEQERQQEIAKMGTPVPRPPQDMGQIGVRTPLGPRVAAPVGPVGPTPTVLPMGAPVPRPRGPPPPPGDENREMDDPSVGPKIPQALEKILQLKESRQEEMNSQQEEEEMETDARSSLGQSASETEEDTVSVSKKEKNRKRRNRKKKKKPQRVRGVSSESSGDREKDSTRSRGSDSPAADVEIEYVTEEPEIYEPNFIFFKRIFEAFKLTDDVKKEKEKEPEKLDKLENSAAPKKKGFEEEHKDSDDDSSDDEQEKKPEAPKLSKKKLRRMNRFTVAELKQLVARPDVVEMHDVTAQDPKLLVHLKATRNSVPVPRHWCFKRKYLQGKRGIEKPPFELPDFIKRTGIQEMREALQEKEEQKTMKSKMREKVRPKMGKIDIDYQKLHDAFFKWQTKPKLTIHGDLYYEGKEFETRLKEKKPGDLSDELRISLGMPVGPNAHKVPPPWLIAMQRYGPPPSYPNLKIPGLNSPIPESCSFGYHAGGWGKPPVDETGKPLYGDVFGTNAAEFQTKTEEEEIDRTPWGELEPSDEESSEEEEEEESDEDKPDETGFITPADSGLITPGGFSSVPAGMETPELIELRKKKIEEAMDGSETPQLFTVLPEKRTATVGGAMMGSTHIYDMSTVMSRKGPAPELQGVEVALAPEELELDPMAMTQKYEEHVREQQAQVEKEDFSDMVAEHAAKQKQKKRKAQPQDSRGGSKKYKEFKF

System: KDM4A-I71AzF
Test: CASI: photo-crosslinking with HEK293T cell extracts, StrepTactin enrichment and LC-MS/MS proteomics;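 note: lysates from HEK293T cells pretreated with a KDM4 inhibitor to raise proteome methylation, affinity-purified after ±UV, gel-resolved, trypsin-digested, with exclusive unique peptides per protein averaged per condition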
Assay type: binding, human
Conditions: sheet "Final results but with 0.01"

| Molecule | Fold change (+UV/-UV) |
| --- | --- |
| B1 | 1.125 |
| B2 | 0.3333 |
| B3 | 0.375 |
| B4 | 0.7273 |
